{"source": "paper PMC9521928", "molecular_target": "CPXV14-His (His-tagged recombinant cowpox virus Brighton Red CPXV14) (cowpox virus (Brighton Red strain))", "assay": "BLI; […] (10 μg/mL, 2 min), […]; PBS pH 7.4, 0.005% Tween-20; 25°C; steady-state fit, 1:1 binding model; […]", "data": [{"substance": "soluble recombinant murine FcγRIIB (mCD32B) ectodomain (from UniProt P08101 30-210) (receptor)", "values": [{"measurement": "Kd", "value": 3.6, "unit": "nM"}]}]}
